The record followed here is patent US20090118167A1, “Selective Vpac2 Receptor Peptide Agonists” (Eli Lilly and Company Patent Division, priority 2004, published 2009).

The target in one data set is T1, human PAC1 (Homo sapiens, UniProt P41586).
T1 construct: expressed in transfected cells; membranes)
T1 sequence (P41586 21-468): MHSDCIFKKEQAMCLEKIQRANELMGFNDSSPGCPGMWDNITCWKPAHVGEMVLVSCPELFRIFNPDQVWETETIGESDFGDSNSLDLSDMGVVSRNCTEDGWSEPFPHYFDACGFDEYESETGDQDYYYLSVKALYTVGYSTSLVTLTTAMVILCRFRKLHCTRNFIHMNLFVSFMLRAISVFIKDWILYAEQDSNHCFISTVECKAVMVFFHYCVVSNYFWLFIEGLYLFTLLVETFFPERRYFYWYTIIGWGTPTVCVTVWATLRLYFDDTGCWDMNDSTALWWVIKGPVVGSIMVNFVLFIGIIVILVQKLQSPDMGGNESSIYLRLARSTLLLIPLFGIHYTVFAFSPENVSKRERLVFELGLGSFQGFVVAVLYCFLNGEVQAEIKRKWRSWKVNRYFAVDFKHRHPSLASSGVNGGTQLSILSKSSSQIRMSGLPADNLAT
The data set can be described thus: Filter binding assay, 125I-labeled PACAP-27 tracer. Conditions: membranes from cells transiently transfected with human PAC1; read-out: Human receptor binding IC50 PAC1. How it is done: (§1) In order to prepare the filter plates, the presoak solution is aspirated by vacuum filtration. The plates are flushed twice with 200 μL flush buffer. 200 μL blocking buffer is added to the filter plate. The filter plate is then incubated with 200 μL presoak solution for 1 hour at room temperature.
(§2) The assay plate is filled with 25 μL assay buffer, 25 μL membranes (2.5 μg) suspended in assay buffer, 25 μL compound (agonist) in assay buffer, and 25 μL tracer (about 40000 cpm) in assay buffer. The filled plate is incubated for 1 hour with shaking.
(§3) The transfer from assay plate to filter plate is conducted. The blocking buffer is aspirated by vacuum filtration and washed two times with flush buffer. 90 μL is transferred from the assay plate to the filter plate. The 90 μL transferred from assay plate is aspirated and washed three times with 200 μL flush buffer. The plastic support is removed. It is dried for 1 hour at 60° C. 30 μL Microscint is added. The count is performed.
(§4) Values reported are single results or the mean of two or more independent runs.

For another data set, the target named is T2, human VPAC1 (Homo sapiens, UniProt P32241).
T2 construct: expressed in transfected cells
T2 sequence (P32241 31-457): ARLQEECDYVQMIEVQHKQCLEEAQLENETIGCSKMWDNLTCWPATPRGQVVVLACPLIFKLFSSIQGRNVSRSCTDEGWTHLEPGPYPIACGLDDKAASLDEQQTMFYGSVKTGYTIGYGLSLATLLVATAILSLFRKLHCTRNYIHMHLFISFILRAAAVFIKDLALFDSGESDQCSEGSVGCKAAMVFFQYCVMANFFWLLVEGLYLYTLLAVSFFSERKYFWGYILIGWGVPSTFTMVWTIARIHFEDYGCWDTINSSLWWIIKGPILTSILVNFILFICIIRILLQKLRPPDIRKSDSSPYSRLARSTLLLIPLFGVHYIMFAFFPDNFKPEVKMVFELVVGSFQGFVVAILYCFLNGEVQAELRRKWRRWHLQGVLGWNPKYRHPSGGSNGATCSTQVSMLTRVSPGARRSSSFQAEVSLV
In words: Filter binding assay, 125I-labeled VIP tracer. The settings on record: membranes from cells transiently transfected with human VPAC1; read-out: Human receptor binding IC50 VPAC1. How it is done:
as §1, §2, §3, §4

The conditions of data set [1]: rat, in vivo, sc, 0.1 mg/kg. How it is done:
Healthy Fisher 344 rats (3 animals per group) are injected with 100 μg compound/kg (compound amount based on peptide content and dissolved in PBS buffer). […] PK parameters are then calculated using a model-independent method (WinNonlin Pro, Pharsight Corp., Mountain View, Calif., USA).

In a further data set the test system is Normal Wistar rats. In words: Intravenous glucose tolerance test (IVGTT). In kind it is in vivo, rat. On the procedure:
Intravenous glucose tolerance test (IVGTT): Normal Wistar rats are fasted overnight and are anesthetized prior to the experiment. A blood sampling catheter is inserted into the rats. The compound is given in the jugular vein. Blood samples are taken from the carotid artery. A blood sample is drawn immediately prior to the injection of glucose along with the compound. After the initial blood sample, glucose mixed with compound is injected intravenously (i.v.). Compound may also be injected intravenously or subcutaneously prior to the glucose challenge. A glucose challenge of 0.5 g/kg body weight is given, injecting a total of 1.5 mL vehicle with glucose and agonist per kg body weight. The peptide concentrations are varied to produce the desired dose in μg/kg. Blood samples are drawn at 2, 4, 6 and 10 minutes after giving glucose. The control group of animals receives the same vehicle along with glucose, but with no compound added. In some instances, a 30 minute post-glucose blood sample is drawn. Aprotinin is added to the blood sample (250-500 kIU/ml blood). The serum is then analyzed for glucose and insulin using standard methodologies.
The assay uses a formulated and calibrated peptide stock in PBS. Normally, this stock is a prediluted 100 μM stock. However, a more concentrated stock with approximately 1 mg agonist per mL is used. The specific concentration is always known. Variability in the maximal response is mostly due to variability in the vehicle dose.

Data set [2] deals with T3, human VPAC2 receptor (human, UniProt P41587 24-438).
T3 sequence (looked up): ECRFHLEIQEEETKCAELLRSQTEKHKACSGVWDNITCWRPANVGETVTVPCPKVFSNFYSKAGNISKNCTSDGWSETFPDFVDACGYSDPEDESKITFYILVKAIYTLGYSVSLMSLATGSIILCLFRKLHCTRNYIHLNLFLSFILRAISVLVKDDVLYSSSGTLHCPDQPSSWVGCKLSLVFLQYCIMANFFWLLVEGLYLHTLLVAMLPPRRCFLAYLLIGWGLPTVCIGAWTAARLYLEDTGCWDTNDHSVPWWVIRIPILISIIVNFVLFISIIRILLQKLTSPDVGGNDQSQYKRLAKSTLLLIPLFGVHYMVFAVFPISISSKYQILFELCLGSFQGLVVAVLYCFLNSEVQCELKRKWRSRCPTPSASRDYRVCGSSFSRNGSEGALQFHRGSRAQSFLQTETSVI
The data set can be described thus: cell-based or functional assay.

In data set [3] the target is T3, human VPAC2 receptor. The data set can be described thus: filter binding assay, human VPAC2 membranes, displacement of 125I-VIP. How it is done:
as §2, §3

Marks after values point to notes of the source that are not given here. Square brackets hold non-standard residues; d marks the D form. Ends that are not written are not given here. Nle = CCCC[C@H](N)C(=O)O; Orn = NCCC[C@H](N)C(=O)O; Aib = CC(C)(N)C(=O)O

Take “P348: cyclic PEGylated VPAC2 receptor peptide agonist (HSDAVFTENYTKLR[Aib]Q[Nle]AAKKYLNDLK[Aib]KGGPSSGAPPPC; not fully specified (residue 40); ends and bridges not checked; also: cyclic, bridge type and places not given here, PEGylated, site not placed) [Agonist P348]”: the 50% inhibitory concentration (IC50) in the data set with human PAC1 was more than 25 µM. The IC50 with human VPAC1 was more than 1.5 µM. In data set [1], this molecule gave an AUC0-last of 1007 ng·h/mL, a Cl/F of 1.5 mL/min/kg and a Vd/F of 2.224 L/kg.
As for “P376: cyclic PEGylated VPAC2 receptor peptide agonist (HSDAVFTENYT[Orn]LR[Aib]Q[Nle]AA[Orn]KYLNDL[Orn][Orn]GGPSSGAPPPC; also: cyclic, bridge type and places not given here, PEGylated, site not placed) [Agonist P376]”, the IC50 in the data set with human PAC1 was more than 25 µM; with human VPAC1, more than 3 µM.
As for “P277: cyclic PEGylated VPAC2 receptor peptide agonist (HSDAVFTENYTKLRKQ[Nle]AAKKYLNDLKQGGPSSGAPPPC; ends and bridges not checked; also: cyclic, bridge type and places not given here, PEGylated, site not placed) [Agonist P277]”, the IC50 with human PAC1 is more than 25 µM; with human VPAC1, more than 3 µM.
With “P463: cyclic PEGylated VPAC2 receptor peptide agonist (HSDAVFTENYT[Orn]LR[Aib]Q[Nle]AA[Orn]KYLNDL[Orn][Orn]GGPSSGAPPPC; also: cyclic, bridge type and places not given here, PEGylated, site not given here) [Agonist P463]”, the IC50 in the data set with human PAC1 was more than 25 µM; with human VPAC1, more than 3 µM.
In the case of “P279: cyclic PEGylated VPAC2 receptor peptide agonist (HSDAVFTENYTKLR[Aib]Q[Nle]AAKKYLNDLKKGGPSSGAPPPC; not fully specified (residue 39); ends and bridges not checked; also: cyclic, bridge type and places not given here, PEGylated, site not placed) [Agonist P279]”, the IC50 with human PAC1 was more than 25 µM; in the data set with human VPAC1, more than 3 µM.
The matching figures for “P274: cyclic PEGylated VPAC2 receptor peptide agonist (HSDAVFTENYTKL[Aib]KQ[Nle]AAKKYLNDLKQKGGPSSGAPPPC; not fully specified (residue 40); ends and bridges not checked; also: cyclic, bridge type and places not given here, PEGylated, site not placed) [Agonist P274]”: more than 25 µM and more than 3 µM.
For the molecule “P239: cyclic PEGylated VPAC2 receptor peptide agonist (HSDAVFTENYTKLRKQ[Nle]AAKKYLNDLKQGGPSSGAPPPC; not fully specified (residue 39); ends and bridges not checked; also: cyclic, bridge type and places not given here, PEGylated, site not placed) [Agonist P239]”, the values for the IC50 with human PAC1 and in the data set with human VPAC1 were more than 25 µM and more than 3 µM, respectively.
Turning to “P201: cyclic PEGylated VPAC2 receptor peptide agonist; P200 reacted with methoxy-PEG2-MAL-40K (HSDAVFTENYTKLRKQ[Nle]AAKKYLNDLKKGGPSSGAPPPC(methoxy‑PEG2‑MAL‑40K); ends and bridges not checked; also: cyclic, bridge kind and places not given here) [Agonist P201]”, the “% increase AUC (insulin, 0-10 min after glucose)” value with Normal Wistar rats (Dose 10 μg/kg iv, 0 h between glucose & compound) is reported as “+146%”; in the data set with Normal Wistar rats (Dose 10 μg/kg iv, 4 h between glucose & compound) it was “+104%”; in the data set on Normal Wistar rats (Dose 30 μg/kg iv, 4 h between glucose & compound), “+191%”; in the data set on Normal Wistar rats (Dose 100 μg/kg iv, 4 h between glucose & compound), “+183%”; in the data set on Normal Wistar rats (Dose 300 μg/kg, given subcutaneously, 24 h between glucose & compound), “+209%”; with Normal Wistar rats (Dose was 90 μg/kg (column 100 μg/kg), given subcutaneously, 24 h between glucose & compound), “+89** %”. In the data set with human VPAC1, the IC50 is more than 3 µM. Moreover, the AUC0-last in data set [1] came out at 8101 ng·h/mL. In addition, the Cl/F in data set [1] came to 0.2 mL/min/kg. In data set [1], this molecule gave a Vd/F of 0.214 L/kg.
With HSDAVFTENYTKL[Aib]KQ[Nle]AAKKYLNDLKQKGGPSSGAPPPC (also: further groups not given here) [P274 (cyclic PEGylated VPAC2 receptor peptide agonist)], the “EC50 for cAMP generation, Alpha screen” value with human VPAC2 receptor [2] worked out at 0.0761 µM. Also, the IC50 with human VPAC2 receptor [3] was found to be 0.126 µM.

B1: P268 (cyclic PEGylated VPAC2 receptor peptide agonist) (peptide)
peptide: HSDAVFTENYTKLRKQ[Nle]AAKKYLNDLKQKGGPSSGAPPPC
modifications: ends and bridges not checked; also: cyclic bridge (lactam or disulfide), places not given here, PEGylated, site not given here
With B1, the “EC50 for cAMP generation, Alpha screen” value with human VPAC2 receptor [2] is 0.00882 µM.
For HSDAVFTENYTKLRKQ[Nle]AAKKYLNDLKQGGPSSGAPPPC (also: further groups not given here) [P277 (cyclic PEGylated VPAC2 receptor peptide agonist)], in the data set with human VPAC2 receptor [2], the “EC50 for cAMP generation, Alpha screen” value came out at 0.47 µM. The same molecule registered an IC50 with human VPAC2 receptor [3] of 0.0909 µM.
In the case of HSDAVFTENYTKLR[Aib]Q[Nle]AAKKYLNDLKKGGPSSGAPPPC (also: further groups not given here) [P279 (cyclic PEGylated VPAC2 receptor peptide agonist)], in the data set with human VPAC2 receptor [2], the “EC50 for cAMP generation, Alpha screen” value was determined as 0.00593 µM. In the data set with human VPAC2 receptor [3], this molecule yielded an IC50 of 0.0072 µM.
